Data published in IntAct's records for PubMed 22612223.

Target: cdc37_human CDC37 (UniProt Q16543)
Sequence (Q16543 whole entry): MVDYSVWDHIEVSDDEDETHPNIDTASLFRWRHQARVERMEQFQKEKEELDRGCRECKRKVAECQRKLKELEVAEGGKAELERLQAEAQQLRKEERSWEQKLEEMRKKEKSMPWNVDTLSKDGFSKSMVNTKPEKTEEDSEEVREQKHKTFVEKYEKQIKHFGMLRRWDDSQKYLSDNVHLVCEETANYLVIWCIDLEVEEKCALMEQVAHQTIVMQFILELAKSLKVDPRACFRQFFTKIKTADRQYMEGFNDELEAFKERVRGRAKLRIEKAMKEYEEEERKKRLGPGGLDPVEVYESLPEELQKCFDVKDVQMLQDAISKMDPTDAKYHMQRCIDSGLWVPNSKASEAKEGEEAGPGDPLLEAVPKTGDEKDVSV

effect of a mutation on the interaction: increasing interaction
Substance: Leucine-rich repeat serine/threonine-protein kinase 2 (Homo sapiens), Q5S007 G2385R
